Assay: yeast display, Sf9 membrane polyspecificity reagent, FACS + sequencing; frameworks hold sequencing errors
How it was run: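 Using colony PCR, genes from sorted yeast display clones were amplified, then sequenced on MiSeq at 2 × 250 and filtered by CDR length. The clones had been stained with 10% biotinylated, detergent-solubilized Sf9 membrane reagent for 1 hour at 4 °C and sorted by FACS into low and high (top ~1%) gates on anti-HA and streptavidin fluorescence. Polyreactivity labels come from the gate of origin.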

With “QVQLVESGGGLVQAGGSLRLSCAASGSTFTSYAMGWYRQAPGKERELVAAISRRGTSTYYADSVKGRFTISRDNAKNTVYLQMNSLKPEDTAVYYCAADGYYWEYYYWGQVTQVTVSS” the “polyreactivity (PSR sort gate)” value was “high polyreactivity”.

For “QVQLVESGGGLVQAGGSLRLSCAASGSTFTTHVMGWYRQAPGKERELVAAISWSSGSTYYADSVKGRFTISRDNEKNTVYLQMNSLKPEDTAVYYCDARLVIFYPYSRYYFWGQGTQVTVSS”, the “polyreactivity (PSR sort gate)” value was “high polyreactivity”.

With “QVQLVESGGGLVQAGGSLRLSCAASGSTFTTNAMGWYIQAPGKERELVATISGGSTNYADSVKGRFTISRDNAKNTVYLQMNSLKPEDTAVYYCNTDGEVTYDYWGQGTQVTVSS” the “polyreactivity (PSR sort gate)” value was “low polyreactivity”.

In the case of “QVQLVESGGGLVQAGGSLRLSCAASGSTFTTNAMGWYSQAPGKERELVATISGGGSTYYADSVKGRFTISRDNAKNTVYLQMNSLKPEDTAVYYCATDVQVPGIGRSVYAYEYWGQGTQVTVSS”, the “polyreactivity (PSR sort gate)” value is reported as “low polyreactivity”.

With “QVQLVESGGGLVQAGGSLRLSCAASGSTFTTYAMGWYRQAPGKERELVAAISRTGGVTYYADTVKGRFTISRDNGKKTVYLQMNSLKPDDTAVYYCNAGLFRGAQFDYWGLGTQVTVSS” the “polyreactivity (PSR sort gate)” value was “high polyreactivity”.

In the case of “QVQLVESGGGLVQAGGSLRLSCAASGSTFTVNCMGWYRQAPGKERELVASITWSGGSTYYADSVKGRFTISRDNAKNTVYFQMNSLKPEDTAVYYCAADEKLYITGYDYWGQGTQVTVSS”, the “polyreactivity (PSR sort gate)” value is reported as “low polyreactivity”.

For “QVQLVESGGGLVQAGGSLRLSCAASGSTFTVNDMGWYRQAPGKERELVAAITQRDGRTFYADSVKGRFTISRDNAKNTVYLQMNSLKPEDTAVYYCAATFIQVVVNVQLYDYDYWGQGTQVTVSS”, the “polyreactivity (PSR sort gate)” value was “low polyreactivity”.

In the case of “QVQLVESGGGLVQAGGSLRLSCAASGSTFTVNGMGWYRQAPGKERELVASITWSGGSTYYADSVKGRFTISRDNAKNTVYLQLNSLKPEDTAVYYCNAVDTRVPSIRFDYWGQRTQVTVSS”, the “polyreactivity (PSR sort gate)” value is reported as “low polyreactivity”.

For “QVQLVESGGGLVQAGGSLRLSCAASGSTFTVNGMGWYRQATGKESELVAAIDGGDGSTYYADSVKGRFTISRDNAKNTVYLQMNSLKPEDTAVYYCAADPPGFTQYGYWGQGTQVTVSS”, the “polyreactivity (PSR sort gate)” value was “low polyreactivity”.

For “QVQLVESGGGLVQAGGSLRLSCAASGSTFTVYAMGWYRQAPGKERELVAAISSSTGSTYYADSVKGRFTISRDNAKNTVYLQMNSLKPEDTAVSYCAADVYHVTTSSYTEFEYWGQGTQVTVSS”, the “polyreactivity (PSR sort gate)” value was “low polyreactivity”.

With “QVQLVESGGGLVQAGGSLRLSCAASGSTFTVYAMGWYRQAPGKERELVAAISWSGGSTYYADSVKGRFTISRDNAKNTVYLQMNSLKPEDTAVYYCAVVIYWRTGEYDYWGQGTQVTVSS” the “polyreactivity (PSR sort gate)” value was “low polyreactivity”.

For “QVQLVESGGGLVQAGGSLRLSCAASGSTFTVYAMGWYRQAPGKERELVAGISSGGSTYYADSVKGRFTISRDNAKNTVYLQMNSLKPEDTAVYYCAALRVRVPLGTYGYWGQVTQVTVSS”, the “polyreactivity (PSR sort gate)” value was “high polyreactivity”.

In the case of “QVQLVESGGGLVQAGGSLRLSCAASGSTFTWYAMGWYRQAPGKEGELVAAISRGGSTNYADSVKGRFTISRDNAKNTVYLQMNSLKPEDTAVYYCAAESYWRDDYWGQGTQVTVSS”, the “polyreactivity (PSR sort gate)” value is reported as “low polyreactivity”.

With “QVQLVESGGGLVQAGGSLRLSCAASGSTFTYNAMGWYRQAPGKERELVAAIRSNGGSTYYADSVKGRFTISRDNAKNTVYLQMNSLKPEDTAVYYCAARLSVLGGYRGRNAWRFDHWGLGTQVTVSS” the “polyreactivity (PSR sort gate)” value was “high polyreactivity”.

With “QVQLVESGGGLVQAGGSLRLSCAASGSTFTYNTLVWYRQAPGKERELVAAISWGGGGTYYADSVKGRFTISRDNAKNTVYLQMNSLKPEDTAVYYCNADPWWDYGTFDYWGQGTQVTVSS” the “polyreactivity (PSR sort gate)” value was “low polyreactivity”.

In the case of “QVQLVESGGGLVQAGGSLRLSCAASGSTFTYYDMGWYRQAPGKERELVATIDSTTRTYYADSVKGRFTISRDNAKNTVYLQMNSLKPEDTAVYYCAADLTWAYFYYLFYRYDYWGQGTQVTVSS”, the “polyreactivity (PSR sort gate)” value is reported as “low polyreactivity”.

With “QVQLVESGGGLVQAGGSLRLSCAASGSTFTYYTMAWYRQAPGKERELVAAISWSGGRTYYADSVKGRFTISRDNAKNTVYLQMNSLKPEDTAVYYCAAGPAPGHDSWGQGTQVTVSS” the “polyreactivity (PSR sort gate)” value was “high polyreactivity”.

In the case of “QVQLVESGGGLVQAGGSLRLSCAASGSTFVANAMGWYIQAPGKERELVAAISFNRGGNTYYADSVKGRFTISRDNAKNTVYLQMNSLKPEDTAVYYCAAAQRELPTVRRNYWGQGTQVTVSS”, the “polyreactivity (PSR sort gate)” value is reported as “high polyreactivity”.

With “QVQLVESGGGLVQAGGSLRLSCAASGSTFVANAMGWYRQAPGKERELVAAISGAGGGTYYADSVKGRFTISRDNAKNTVYLQMNSLKPEDTAVYYCAAVPWYYYHYWVSHPYGGDYWGQGTQVTVSS” the “polyreactivity (PSR sort gate)” value was “low polyreactivity”.

For “QVQLVESGGGLVQAGGSLRLSCAASGSTFVAYAKGWYRQAPGKETEWDASISGSGGTTNYADSVKGRFTISRDNAKNTVYLQMNSLKPEDTAVYYCARRYYSVKSRYALNSWGQGTQVTVSS”, the “polyreactivity (PSR sort gate)” value was “high polyreactivity”.

In the case of “QVQLVESGGGLVQAGGSLRLSCAASGSTFVAYAMGWYRQAPGKERELVAAITYSGGRTYYADSVKGRFTISRDNAKNTVYLQMNSLKPEDTAVYSCAATGVFRDEYWGQGTQVTVSS”, the “polyreactivity (PSR sort gate)” value is reported as “low polyreactivity”.

For “QVQLVESGGGLVQAGGSLRLSCAASGSTFVDYAMGWYRPAPGKERELVAAINSDGGGTYYADSVKGRFTISRDNAKNTVYLQMNSLKPEDTAVYYCAAVGYTTYRRYDYWGQGTQVTVSS”, the “polyreactivity (PSR sort gate)” value was “low polyreactivity”.

For “QVQLVESGGGLVQAGGSLRLSCAASGSTFVFYAMGWYRQAPGKERELVAGISDSGGNTYYADSVKGRFTISRDNAKNTVYLQMNSLKPEDTAVYYCATRYPYYPFYVGIYELDYWGQGTQVTVSS”, the “polyreactivity (PSR sort gate)” value was “low polyreactivity”.

With “QVQLVESGGGLVQAGGSLRLSCAASGSTFVFYAMGWYRQAPRKERELVAAITIGGSTYADSVKGRFTISRDNAKNTVYLQMNSLNPEDTAVYYCNADDAPSSFTTLDFTFDYWGQGTQVTVSS” the “polyreactivity (PSR sort gate)” value was “low polyreactivity”.

For “QVQLVESGGGLVQAGGSLRLSCAASGSTFVFYTMGWYRQAPGKEREFVASISGSGGSTYYADSVKGRFTISRDNAKNTVYLQMNSLKPEDTAVYYCGAGYPYYYWTPYYYWGQGTQVTVSS”, the “polyreactivity (PSR sort gate)” value was “high polyreactivity”.

With “QVQLVESGGGLVQAGGSLRLSCAASGSTFVGNAMGCYRQAPVKERELVATISNSGGHTFYADSVKGRFTISRDNAKNTVYLQMNSLKPEDTAVFYCAASTSGAIRRDGYWGQGTQVTVSS” the “polyreactivity (PSR sort gate)” value was “low polyreactivity”.

With “QVQLVESGGGLVQAGGSLRLSCAASGSTFVGNAMGWYRQAPGKERELVAAISRTGGSTYYADSVKGRFTISRDNAKNTVYLQMNSLKPEDTAVYYCNAYTRYSSRRGIGDYWGQGTQVTVSS” the “polyreactivity (PSR sort gate)” value was “high polyreactivity”.

With “QVQLVESGGGLVQAGGSLRLSCAASGSTFVGNAMGWYRQAPGKERELVAAITGGGGSTYYADSVKGRFTISRDNAKNTVYLQMNSLKPEDTAVYSCARDRTDYYVWYVRYYYWGQGTQVTVSS” the “polyreactivity (PSR sort gate)” value was “low polyreactivity”.

For “QVQLVESGGGLVQAGGSLRLSCAASGSTFVGNAMGWYRQAPGKERELVAGITSSGTSTYYADSVKGRFTMSRDNAKNSVYLQMNRLKPEDTAVYYCATDDADESYGFELFDYWGLGTQVTVSS”, the “polyreactivity (PSR sort gate)” value was “low polyreactivity”.

With “QVQLVESGGGLVQAGGSLRLSCAASGSTFVHNGMGWYRQAPGIDRELVGAITDGGSTYYADSVKGRFTISRDNAKNTVYLQMNSLKPEDTAVYYCAAGYSRYGYFRGYRYYYWGQGTQVTVSS” the “polyreactivity (PSR sort gate)” value was “low polyreactivity”.

With “QVQLVESGGGLVQAGGSLRLSCAASGSTFVHYAMGWYRQAPGKERELVAAITISGGRTYYADSVKGRFTISRDNAKNTVYLQMNSLKPEDTAVYYCNADHYHRTWGYDYWGQGTQVTVSS” the “polyreactivity (PSR sort gate)” value was “low polyreactivity”.

— the nanobody polyreactivity screen of Harvey et al. (2022)
